Experiments:
Experiment in all cases: cell-based or functional assay
[1] = biological target: HIV-1 Env of pseudovirus 1006_11_C3_1601 (HIV-1)
[2] = biological target: HIV-1 Env of pseudovirus 1056_10_TA11_1826 (HIV-1)
[3] = biological target: HIV-1 Env of pseudovirus 231965.c01 (HIV-1)
[4] = biological target: HIV-1 Env of pseudovirus 235-47 (HIV-1)
[5] = biological target: HIV-1 Env of pseudovirus 246F C1G (HIV-1)
[6] = biological target: HIV-1 Env of pseudovirus 249M B10 (HIV-1)
[7] = biological target: HIV-1 Env of pseudovirus 263-8 (HIV-1)
[8] = biological target: HIV-1 Env of pseudovirus 3103.v3.c10 (HIV-1)
[9] = biological target: HIV-1 Env of pseudovirus 3301.v1.c24 (HIV-1)
[10] = biological target: HIV-1 Env of pseudovirus 3365.v2.c2 (HIV-1)
[11] = biological target: HIV-1 Env of pseudovirus 6811.v7.c18 (HIV-1)
[12] = biological target: HIV-1 Env of pseudovirus 7030102001E5(Rev-) (HIV-1)
[13] = biological target: HIV-1 Env of pseudovirus CNE20 (HIV-1)
[14] = biological target: HIV-1 Env of pseudovirus CNE52 (HIV-1)
[15] = biological target: HIV-1 Env of pseudovirus CNE8 (HIV-1)
[16] = biological target: HIV-1 Env of pseudovirus Ce1086_B2 (HIV-1)
[17] = biological target: HIV-1 Env of pseudovirus Ce2010_F5 (HIV-1)
[18] = biological target: HIV-1 Env of pseudovirus HIV-0013095-2.11 (HIV-1)
[19] = biological target: HIV-1 Env of pseudovirus HIV-16845-2.22 (HIV-1)
[20] = biological target: HIV-1 Env of pseudovirus MS208.A1 (HIV-1)
[21] = biological target: HIV-1 Env of pseudovirus P0402_c2_11 (HIV-1)
[22] = biological target: HIV-1 Env of pseudovirus Q461.e2 (HIV-1)
[23] = biological target: HIV-1 Env of pseudovirus R3265.c06 (HIV-1)
[24] = biological target: HIV-1 Env of pseudovirus RHPA4259.7 (HIV-1)
[25] = biological target: HIV-1 Env of pseudovirus SC05_8C11_2344 (HIV-1)
[26] = biological target: HIV-1 Env of pseudovirus TRJO4551.58 (HIV-1)
[27] = biological target: HIV-1 Env of pseudovirus TRO.11 (HIV-1)
[28] = biological target: HIV-1 Env of pseudovirus WEAU_d15_410_787 (HIV-1)
[29] = biological target: HIV-1 Env of pseudovirus X1632_S2_B10 (HIV-1)
[30] = biological target: HIV-1 Env of pseudovirus ZM197M.PB7 (HIV-1)
[31] = biological target: HIV-1 Env of pseudovirus ZM214M.PL15 (HIV-1)
[32] = biological target: HIV-1 Env of pseudovirus ZM247v1(Rev-) (HIV-1)
[33] = biological target: MuLV envelope (negative control pseudovirus)

B1: N49P23 (antibody, V domains shown)
VH: QVRLVQSGAGARKTGASMKLSCSTSGYTFTTHHGHFINWVRQARGQGLEWMGWMNPMTGQMNIEGKFQGRVTLTRDIYSDTAYMEMTRLTTGDTGTYYCARGDFGQNYPFHYWGQGSLVIVSS
VL: LSALTQPASVSGSPGQSVTISCSGTNRYLVSWYQQHPDKAPKLIIYDDNKRPSGISDRFSASRPDDTASLTISGLQTGDEATYWCASYERFGGGTRLTVLS
IC50 [1]: 0.015 µg/mL
IC80 [1]: 0.054 µg/mL
MPI [1]: 100
IC50 [2]: 0.075 µg/mL
IC80 [2]: 0.483 µg/mL
MPI [2]: 100
IC50 [3]: > 50 µg/mL
IC80 [3]: > 50 µg/mL
MPI [3]: 35
IC50 [4]: 0.085 µg/mL
IC80 [4]: 0.749 µg/mL
MPI [4]: 90
IC50 [5]: > 50 µg/mL
IC80 [5]: > 50 µg/mL
MPI [5]: 11
IC50 [6]: > 50 µg/mL
IC80 [6]: > 50 µg/mL
MPI [6]: 20
IC50 [7]: 0.012 µg/mL
IC80 [7]: 0.096 µg/mL
MPI [7]: 100
IC50 [8]: 43.8 µg/mL
IC80 [8]: > 50 µg/mL
MPI [8]: 54
IC50 [9]: 0.017 µg/mL
IC80 [9]: 0.058 µg/mL
MPI [9]: 100
IC50 [10]: 0.017 µg/mL
IC80 [10]: 0.053 µg/mL
MPI [10]: 100
IC50 [11]: 17.7 µg/mL
IC80 [11]: > 50 µg/mL
MPI [11]: 61
IC50 [12]: 0.172 µg/mL
IC80 [12]: 0.797 µg/mL
MPI [12]: 100
IC50 [13]: 45.4 µg/mL
IC80 [13]: > 50 µg/mL
MPI [13]: 51
IC50 [14]: 0.014 µg/mL
IC80 [14]: 0.051 µg/mL
MPI [14]: 100
IC50 [15]: 6.35 µg/mL
IC80 [15]: 47.3 µg/mL
MPI [15]: 81
IC50 [16]: 0.063 µg/mL
IC80 [16]: 0.303 µg/mL
MPI [16]: 100
IC50 [17]: 1.59 µg/mL
IC80 [17]: 11.6 µg/mL
MPI [17]: 91
IC50 [18]: 0.114 µg/mL
IC80 [18]: 0.899 µg/mL
MPI [18]: 96
IC50 [19]: > 50 µg/mL
IC80 [19]: > 50 µg/mL
MPI [19]: 20
IC50 [20]: 0.048 µg/mL
IC80 [20]: 0.279 µg/mL
MPI [20]: 100
IC50 [21]: 0.022 µg/mL
IC80 [21]: 0.065 µg/mL
MPI [21]: 100
IC50 [22]: 0.099 µg/mL
IC80 [22]: 0.464 µg/mL
MPI [22]: 100
IC50 [23]: > 50 µg/mL
IC80 [23]: > 50 µg/mL
MPI [23]: 0
IC50 [24]: 0.01 µg/mL
IC80 [24]: 0.04 µg/mL
MPI [24]: 100
IC50 [25]: 0.133 µg/mL
IC80 [25]: 0.548 µg/mL
MPI [25]: 100
IC50 [26]: 0.016 µg/mL
IC80 [26]: 0.068 µg/mL
MPI [26]: 100
IC50 [27]: 0.094 µg/mL
IC80 [27]: 0.336 µg/mL
MPI [27]: 100
IC50 [28]: 0.009 µg/mL
IC80 [28]: 0.031 µg/mL
MPI [28]: 100
IC50 [29]: 0.13 µg/mL
IC80 [29]: > 50 µg/mL
MPI [29]: 62
IC50 [30]: 0.1 µg/mL
IC80 [30]: 0.385 µg/mL
MPI [30]: 100
IC50 [31]: 0.061 µg/mL
IC80 [31]: 0.614 µg/mL
MPI [31]: 100
IC50 [32]: > 50 µg/mL
IC80 [32]: > 50 µg/mL
MPI [32]: 24
IC50 [33]: > 50 µg/mL
IC80 [33]: > 50 µg/mL
MPI [33]: 9

Source: US20230002480A1
